Target: T1, OsMYB8 (Oryza sativa, UniProt A0A0P0V5Q1 51-278)
T1 sequence: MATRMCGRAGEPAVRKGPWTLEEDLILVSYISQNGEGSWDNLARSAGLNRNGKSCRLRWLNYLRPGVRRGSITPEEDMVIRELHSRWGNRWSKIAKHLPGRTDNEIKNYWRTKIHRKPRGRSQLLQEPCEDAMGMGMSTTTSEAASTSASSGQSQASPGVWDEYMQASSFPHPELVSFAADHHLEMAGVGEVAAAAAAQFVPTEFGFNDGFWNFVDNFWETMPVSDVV
Test: EMSA; Beyotime chemiluminescent EMSA kit binding buffer (composition, salt, pH not stated), 20 min, room temperature, 5% native PAGE; 5x and 20x cold competitor
Conditions: protein: recombinant; tags: N-terminal GST (pGEX-4T1); label: biotin; blunt

B1: JAR1-P1-probe (dsDNA)
DNA 1: AAAATAAATGACTTAGGAAAGAACCAAAACATCTTACATTATAGTATAAAGAAG
DNA 2: CTTCTTTATACTATAATGTAAGATGTTTTGGTTCTTTCCTAAGTCATTTATTTT
- binding result: binds

B2: JAR1-P3-probe (dsDNA)
DNA 1: CAGTGTACCTAGTGATGTACCCGCCGAATACGTACGCGTGTATGCATGGGTAGAGA
DNA 2: TCTCTACCCATGCATACACGCGTACGTATTCGGCGGGTACATCACTAGGTACACTG
- binding result: binds

Source: PMC10937712, “Natural variation in OsMYB8 confers diurnal floret opening time divergence between indica and japonica subspecies”
